# Measurements: patent US20200096514
# Experiments:
# [1] = tested on: PEG-PPQ5 fluorogenic nanosensor (PPQ5 peptide on PEG-8 40 kDa scaffold)
Substance,in vitro cleavage (fluorescent dequenching) [1],reversal of FRET-quenched fluorescent signal (cleavage) (ELA-Q),reversal of FRET-quenched fluorescent signal (cleavage) (LAS-Q)
recombinant human MMP13,PEG-PPQ5 pre- and post-aerosolization was equally sensitive to in vitro cleavage by recombinant MMP13,–,–
recombinant mouse MMP13,–,"Both substrates resist cleavage by MMPI, MMP13, and thrombin","Both substrates resist cleavage by MMPI, MMP13, and thrombin"
recombinant mouse thrombin,–,"Both substrates resist cleavage by MMPI, MMP13, and thrombin","Both substrates resist cleavage by MMPI, MMP13, and thrombin"
recombinant mouse MMP1,–,"Both substrates resist cleavage by MMPI, MMP13, and thrombin","Both substrates resist cleavage by MMPI, MMP13, and thrombin"
